According to publication PMC3025952, “Characterization of a core fragment of the rhesus monkey TRIM5α protein” (BMC Biochemistry, 2011):

Key:
[1] = target: the molecule itself; assay: SEC; Superdex 200 (10/30) column calibrated with globular molecular-weight markers, PBS; for LLER also with 25 μM ZnCl2 and DTT (profile not significantly affected)
[2] = target: the molecule itself; assay: SEC-MALS; SEC-LS: about 300 μg LLER on Superose 6 HR 10/30 with in-line Dawn EOS light scattering, refractometer and UV detector
[3] = target: the molecule itself; assay: single-particle cryo-electron microscopy; peak 1 and peak 2 gel-filtration fractions of LLER; peak 2 also incubated with an anti-His6 antibody to count the tags in a particle

B1: BCCL2 protein, wild-type (B-box 2, coiled coil and linker 2 region of rhesus monkey TRIM5α), His6-tagged, from E. coli (domain or fragment)
chain: GSGLVPRGSASMSDSEVNQEAKPEVKLSPEEGQKVDHCARHGEKLLLFCQEDSKVICWLCERSQEHRGHHTFLMEEVAQEYHVKLQTALEMLRQKQQEAEKLEADIREEKASWKIQIDYDKTNVSADFEQLREILDWEESNELQNLEKEEEDILKSLTKSETEMVQQTQYMRELISELEHRLQGSMMDLLQGVDGIIKRIENMTLKKPKTFHKNQRRVFRAPDLKGMLDMFRELTDA
notes: vector-derived spacer between the His6 tag and E83 of TRIM5αrh; Predicted molecular weight with tag and spacer 29.026 kD; also called wild-type (wt); core fragment of TRIM5αrh; source: E. coli BL21(DE3)pLysS, purified (Ni-NTA, SEC, anion exchange); not shown: His6, N-terminal, kept
- binding result [1]: binds

B2: BCCL2 LLER protein (L105E, L106E, E120R, R121E), His6-tagged, from E. coli (domain or fragment, rhesus monkey)
chain: GSGLVPRGSASMSDSEVNQEAKPEVKLSPEEGQKVDHCARHGEKLEEFCQEDSKVICWLCRESQEHRGHHTFLMEEVAQEYHVKLQTALEMLRQKQQEAEKLEADIREEKASWKIQIDYDKTNVSADFEQLREILDWEESNELQNLEKEEEDILKSLTKSETEMVQQTQYMRELISELEHRLQGSMMDLLQGVDGIIKRIENMTLKKPKTFHKNQRRVFRAPDLKGMLDMFRELTDA
notes: vector-derived spacer between the His6 tag and E83 of TRIM5αrh; also called LLER variant; source: E. coli BL21(DE3)pLysS, purified (Ni-NTA, anion exchange, SEC); not shown: His6, N-terminal, kept
- stoichiometry N [2]: 2
- stoichiometry N [3]: ≥ 2
